B1: H2-Kb / Ed45 (parent complex)
chain 1: GEQVEQRPPHLSVREGDSAVIICTYTDPNSYYFFWYKQEPGAGLQLLMKVFSSTEINEGQGFTVLLNKKDKQLSLNLTAAHPGDSAVYFCAVSGTNAYKVIFGKGTHLHVLP
chain 2: EAAVTQSPRSKVAVTGGKVTLSCHQTNNHDYMYWYRQDTGHGLRLIHYSYVADSTEKGDIPDGYKASRPSQENFSLILELASLSQTAVYFCASARGFQDTQYFGPGTRLLVL
chain 3: not shown
chain 4: IQKTPQIQVYSRHPPENGKPNILNCYVTQFHPPHIEIQMLKNGKKIPKVEMSDMSFSKDWSFYILAHTEFTPTETDTYACRVKHDSMAEPKTVYWDRDM
chain 5: SIINFEKL
B2: H2-Kb / Ed5 (parent complex)
chain 1: GDSVTQTEGPVTVSESESLIINCTYSATSIAYPNLFWYVRYPGEGLQLLLKVITAGQKGSSRGFEATYNKETTSFHLQKASVQESDSAVYYCALGSYNQGKLIFGQGTKLSIKP
chain 2: DTTVKQNPRYKLARVGKPVNLICSQTMNHDTMYWYQKKPNQAPKLLLFYYDKILNREADTFEKFQSSRPNNSFCSLYIGSAGLEYSAMYLCASSRRLGASQNTLYFGAGTRLSVL
chain 3: not shown
chain 4: B1 chain 4
chain 5: SIINFEKL

Variants of: B1
Experiment: % of reporter cells activated (NFAT-GFP), raw
Also: test concentration or dose not given here.

Variant | ratio to parent
chain 5 L8Q | 1.79
chain 5 L8F | 1.79
chain 5 L8C | 1.72
chain 5 L8T | 1.72
chain 5 L8N | 1.6
chain 5 L8V | 1.43
chain 5 N4S | 0.0823
chain 5 N4Q | 0.0624
chain 5 N4P | 0.0883
chain 5 N4G | 1.18
chain 5 S1L | 0.0583
chain 5 S1M | 0.0805
chain 5 S1K | 0.191
chain 5 S1W | 0.347
chain 5 S1E | 0.177
chain 5 K7Y | 1.03
chain 5 K7M | 1.21
chain 5 K7H | 1.25
chain 5 K7V | 0.895
chain 5 K7P | 0.891
chain 5 K7T | 0.253
chain 5 K7I | 0.349
chain 5 K7S | 1.34
chain 5 E6G | 0.715
chain 5 E6D | 0.542
chain 5 E6I | 0.155

Variant | ratio to parent
chain 5 E6Q | 0.738
chain 5 E6T | 0.91
chain 5 F5Q | 0.947
chain 5 F5L | 0.719
chain 5 F5P | 1
chain 5 F5W | 2.33
chain 5 F5K | 1.19
chain 5 F5T | 0.936
chain 5 F5H | 1.28
chain 5 F5G | 0.495
chain 5 F5Y | 1.63
chain 5 F5M | 0.797
chain 5 I2Y | 1.75
chain 5 I2W | 1.68
chain 5 I2G | 1.62
chain 5 I2S | 1.32
chain 5 I2Q | 1.91
chain 5 I2E | 1.97
chain 5 I3C | 1.81
chain 5 I3F | 0.726
chain 5 I3W | 1.57
chain 5 I3Q | 2.26
chain 5 I3G | 1.87
chain 5 I3T | 1.86
chain 5 I3P | 2.34
chain 5 I3E | 2.17

The next lines start with the values.

ratio to parent | Variant
1.77 | chain 5 L8R
1.66 | chain 5 L8H
0.241 | chain 5 N4D
1.34 | chain 5 N4L
0.0865 | chain 5 N4V
1.11 | chain 5 N4E
1.11 | chain 5 N4I
0.261 | chain 5 N4F
0.183 | chain 5 N4C
0.0695 | chain 5 N4Y
0.775 | chain 5 S1Y
0.0609 | chain 5 S1F
0.234 | chain 5 S1C
0.0861 | chain 5 S1P
0.0654 | chain 5 S1V
0.424 | chain 5 S1D
0.638 | chain 5 S1H
0.247 | chain 5 K7D
2.06 | chain 5 K7R
0.872 | chain 5 K7G
0.188 | chain 5 E6F
0.317 | chain 5 E6W
1.11 | chain 5 E6N
0.0752 | chain 5 E6R
1.54 | chain 5 F5D
1.33 | chain 5 I2N
0.537 | chain 5 I3Y
2.15 | chain 5 I3D
1.61 | chain 5 I3L

Variants of: B2
Experiment: % of reporter cells activated (NFAT-GFP), raw

Variant | ratio to parent
chain 5 F5I | 0.886
chain 5 F5M | 0.938
chain 5 F5S | 0.735
chain 5 F5A | 1.01
chain 5 F5K | 0.905
chain 5 F5V | 0.777
chain 5 I3H | 0.121
chain 5 I3G | 0.28
chain 5 I3A | 0.32
chain 5 K7A | 0.645
chain 5 K7N | 0.714
chain 5 K7E | 0.632
chain 5 K7F | 0.657
chain 5 K7D | 0.593
chain 5 K7H | 0.798
chain 5 K7M | 0.725
chain 5 L8R | 0.904
chain 5 L8S | 0.641
chain 5 L8K | 0.793
chain 5 L8M | 0.752
chain 5 L8W | 0.585
chain 5 I2H | 0.763

Variant | ratio to parent
chain 5 I2V | 1.01
chain 5 I2T | 1
chain 5 I2W | 0.66
chain 5 I2D | 0.943
chain 5 I2R | 0.641
chain 5 E6Q | 0.619
chain 5 E6K | 0.901
chain 5 E6C | 0.491
chain 5 E6P | 0.186
chain 5 E6I | 0.533
chain 5 S1C | 0.161
chain 5 S1L | 0.0134
chain 5 S1E | 0.981
chain 5 S1M | 0.02
chain 5 S1D | 0.629
chain 5 N4P | 0.00308
chain 5 N4D | 0.756
chain 5 N4I | 0.274
chain 5 N4K | 0.0781
chain 5 N4E | 0.00233
chain 5 N4R | 0.374

Other lines, results leading:

ratio to parent | Variant
0.695 | chain 5 F5W
0.848 | chain 5 F5E
0.892 | chain 5 F5Y
0.822 | chain 5 F5H
0.764 | chain 5 F5R
0.717 | chain 5 K7Y
0.901 | chain 5 L8G
0.958 | chain 5 L8H
0.783 | chain 5 L8Q
0.629 | chain 5 L8E
0.851 | chain 5 I2F
0.618 | chain 5 E6V
0.585 | chain 5 E6S
0.606 | chain 5 E6A
0.944 | chain 5 S1T
0.374 | chain 5 S1W
0.0946 | chain 5 S1P
0.293 | chain 5 S1R
0.556 | chain 5 S1Q
0.0536 | chain 5 N4Y
0.04 | chain 5 N4T
0.182 | chain 5 N4L
0.164 | chain 5 N4C
0.00398 | chain 5 N4G
0.002 | chain 5 N4A
0.0018 | chain 5 N4S
